Laboratory results taken from publication PMC11796359, “Identification and characterization of the functional tetrameric UDP-glucose pyrophosphorylase from Klebsiella pneumoniae” (mBio, 2024).

What was measured:
[1] = target: the molecule itself; experiment: SEC; Superose 6 Increase 10/300 GL; 50 mM Tris-HCl (pH 8.0), 300 mM NaCl, 10 mM MgCl2; oligomeric state calculated from elution volumes of proteins of known size
[2] = target: the molecule itself; experiment: native gel or EMSA; blue native PAGE, 4.5 µg of each protein on a uniform 12% native gel, followed by in-gel activity staining

Protein	stoichiometry N [1]	stoichiometry N [2]
KpUGP E69A (enzyme, UDP-glucose pyrophosphorylase (galU gene product) of K. pneumoniae DSM 30104; mutant of Strep-KpUGP; tag as in m1; no cleavage described) MAALNSKVRKAVIPVAGLGTRMLPATKAIPKEMLPLVDKPLIQYVVNECIAAGITEIVLVTHSSKNSIANHFDTSFELEAMLEKRVKRQLLEEVQSICPPHVTIMQVRQGLAKGLGHAVLCAHPVVGDEPVAVILPDVILDEYESDLSRDNLAEMISRFDETGASQIMVEPVEDVTAYGVVDCKGESLKPGESVPMVGVVEKPKADVAPSNLAVVGRYVLSADIWPLLAKTPPGAGDEIQLTDAIDMLIEKETVEAYHMKGKSHDCGNKLGYMQAFVEYGIRHKTLGDDFKAWLETAVAK	4.4	4
KpUGP F276A (enzyme, UDP-glucose pyrophosphorylase (galU gene product) of K. pneumoniae DSM 30104; mutant of Strep-KpUGP; tag as in m1; no cleavage described) MAALNSKVRKAVIPVAGLGTRMLPATKAIPKEMLPLVDKPLIQYVVNECIAAGITEIVLVTHSSKNSIENHFDTSFELEAMLEKRVKRQLLEEVQSICPPHVTIMQVRQGLAKGLGHAVLCAHPVVGDEPVAVILPDVILDEYESDLSRDNLAEMISRFDETGASQIMVEPVEDVTAYGVVDCKGESLKPGESVPMVGVVEKPKADVAPSNLAVVGRYVLSADIWPLLAKTPPGAGDEIQLTDAIDMLIEKETVEAYHMKGKSHDCGNKLGYMQAAVEYGIRHKTLGDDFKAWLETAVAK	4.6	4
KpUGP D73N (enzyme, UDP-glucose pyrophosphorylase (galU gene product) of K. pneumoniae DSM 30104; mutant of Strep-KpUGP; tag as in m1; no cleavage described) MAALNSKVRKAVIPVAGLGTRMLPATKAIPKEMLPLVDKPLIQYVVNECIAAGITEIVLVTHSSKNSIENHFNTSFELEAMLEKRVKRQLLEEVQSICPPHVTIMQVRQGLAKGLGHAVLCAHPVVGDEPVAVILPDVILDEYESDLSRDNLAEMISRFDETGASQIMVEPVEDVTAYGVVDCKGESLKPGESVPMVGVVEKPKADVAPSNLAVVGRYVLSADIWPLLAKTPPGAGDEIQLTDAIDMLIEKETVEAYHMKGKSHDCGNKLGYMQAFVEYGIRHKTLGDDFKAWLETAVAK	2.4	
KpUGP R108K (enzyme, UDP-glucose pyrophosphorylase (galU gene product) of K. pneumoniae DSM 30104; mutant of Strep-KpUGP; tag as in m1; no cleavage described; also called R108R (as printed once in the text)) MAALNSKVRKAVIPVAGLGTRMLPATKAIPKEMLPLVDKPLIQYVVNECIAAGITEIVLVTHSSKNSIENHFDTSFELEAMLEKRVKRQLLEEVQSICPPHVTIMQVKQGLAKGLGHAVLCAHPVVGDEPVAVILPDVILDEYESDLSRDNLAEMISRFDETGASQIMVEPVEDVTAYGVVDCKGESLKPGESVPMVGVVEKPKADVAPSNLAVVGRYVLSADIWPLLAKTPPGAGDEIQLTDAIDMLIEKETVEAYHMKGKSHDCGNKLGYMQAFVEYGIRHKTLGDDFKAWLETAVAK	2.4	
KpUGP K27A (enzyme, UDP-glucose pyrophosphorylase (galU gene product) of K. pneumoniae DSM 30104; mutant of Strep-KpUGP; tag as in m1; no cleavage described) MAALNSKVRKAVIPVAGLGTRMLPATAAIPKEMLPLVDKPLIQYVVNECIAAGITEIVLVTHSSKNSIENHFDTSFELEAMLEKRVKRQLLEEVQSICPPHVTIMQVRQGLAKGLGHAVLCAHPVVGDEPVAVILPDVILDEYESDLSRDNLAEMISRFDETGASQIMVEPVEDVTAYGVVDCKGESLKPGESVPMVGVVEKPKADVAPSNLAVVGRYVLSADIWPLLAKTPPGAGDEIQLTDAIDMLIEKETVEAYHMKGKSHDCGNKLGYMQAFVEYGIRHKTLGDDFKAWLETAVAK	2.1	
KpUGP K10A (enzyme, UDP-glucose pyrophosphorylase (galU gene product) of K. pneumoniae DSM 30104; mutant of Strep-KpUGP; tag as in m1; no cleavage described) MAALNSKVRAAVIPVAGLGTRMLPATKAIPKEMLPLVDKPLIQYVVNECIAAGITEIVLVTHSSKNSIENHFDTSFELEAMLEKRVKRQLLEEVQSICPPHVTIMQVRQGLAKGLGHAVLCAHPVVGDEPVAVILPDVILDEYESDLSRDNLAEMISRFDETGASQIMVEPVEDVTAYGVVDCKGESLKPGESVPMVGVVEKPKADVAPSNLAVVGRYVLSADIWPLLAKTPPGAGDEIQLTDAIDMLIEKETVEAYHMKGKSHDCGNKLGYMQAFVEYGIRHKTLGDDFKAWLETAVAK	3.1	
KpUGP K65R (enzyme, UDP-glucose pyrophosphorylase (galU gene product) of K. pneumoniae DSM 30104; mutant of Strep-KpUGP; tag as in m1; no cleavage described) MAALNSKVRKAVIPVAGLGTRMLPATKAIPKEMLPLVDKPLIQYVVNECIAAGITEIVLVTHSSRNSIENHFDTSFELEAMLEKRVKRQLLEEVQSICPPHVTIMQVRQGLAKGLGHAVLCAHPVVGDEPVAVILPDVILDEYESDLSRDNLAEMISRFDETGASQIMVEPVEDVTAYGVVDCKGESLKPGESVPMVGVVEKPKADVAPSNLAVVGRYVLSADIWPLLAKTPPGAGDEIQLTDAIDMLIEKETVEAYHMKGKSHDCGNKLGYMQAFVEYGIRHKTLGDDFKAWLETAVAK	2.4	
KpUGP K27Q (enzyme, UDP-glucose pyrophosphorylase (galU gene product) of K. pneumoniae DSM 30104; mutant of Strep-KpUGP; tag as in m1; no cleavage described; eluted predominantly as dimers) MAALNSKVRKAVIPVAGLGTRMLPATQAIPKEMLPLVDKPLIQYVVNECIAAGITEIVLVTHSSKNSIENHFDTSFELEAMLEKRVKRQLLEEVQSICPPHVTIMQVRQGLAKGLGHAVLCAHPVVGDEPVAVILPDVILDEYESDLSRDNLAEMISRFDETGASQIMVEPVEDVTAYGVVDCKGESLKPGESVPMVGVVEKPKADVAPSNLAVVGRYVLSADIWPLLAKTPPGAGDEIQLTDAIDMLIEKETVEAYHMKGKSHDCGNKLGYMQAFVEYGIRHKTLGDDFKAWLETAVAK	2.2	
KpUGP E238Q (enzyme, UDP-glucose pyrophosphorylase (galU gene product) of K. pneumoniae DSM 30104; mutant of Strep-KpUGP; tag as in m1; no cleavage described) MAALNSKVRKAVIPVAGLGTRMLPATKAIPKEMLPLVDKPLIQYVVNECIAAGITEIVLVTHSSKNSIENHFDTSFELEAMLEKRVKRQLLEEVQSICPPHVTIMQVRQGLAKGLGHAVLCAHPVVGDEPVAVILPDVILDEYESDLSRDNLAEMISRFDETGASQIMVEPVEDVTAYGVVDCKGESLKPGESVPMVGVVEKPKADVAPSNLAVVGRYVLSADIWPLLAKTPPGAGDQIQLTDAIDMLIEKETVEAYHMKGKSHDCGNKLGYMQAFVEYGIRHKTLGDDFKAWLETAVAK	4.4	4
KpUGP E238A (enzyme, UDP-glucose pyrophosphorylase (galU gene product) of K. pneumoniae DSM 30104; mutant of Strep-KpUGP; tag as in m1; no cleavage described) MAALNSKVRKAVIPVAGLGTRMLPATKAIPKEMLPLVDKPLIQYVVNECIAAGITEIVLVTHSSKNSIENHFDTSFELEAMLEKRVKRQLLEEVQSICPPHVTIMQVRQGLAKGLGHAVLCAHPVVGDEPVAVILPDVILDEYESDLSRDNLAEMISRFDETGASQIMVEPVEDVTAYGVVDCKGESLKPGESVPMVGVVEKPKADVAPSNLAVVGRYVLSADIWPLLAKTPPGAGDAIQLTDAIDMLIEKETVEAYHMKGKSHDCGNKLGYMQAFVEYGIRHKTLGDDFKAWLETAVAK	4.4	4
KpUGP K65A (enzyme, UDP-glucose pyrophosphorylase (galU gene product) of K. pneumoniae DSM 30104; mutant of Strep-KpUGP; tag as in m1; no cleavage described) MAALNSKVRKAVIPVAGLGTRMLPATKAIPKEMLPLVDKPLIQYVVNECIAAGITEIVLVTHSSANSIENHFDTSFELEAMLEKRVKRQLLEEVQSICPPHVTIMQVRQGLAKGLGHAVLCAHPVVGDEPVAVILPDVILDEYESDLSRDNLAEMISRFDETGASQIMVEPVEDVTAYGVVDCKGESLKPGESVPMVGVVEKPKADVAPSNLAVVGRYVLSADIWPLLAKTPPGAGDEIQLTDAIDMLIEKETVEAYHMKGKSHDCGNKLGYMQAFVEYGIRHKTLGDDFKAWLETAVAK	2	
KpUGP E77Q (enzyme, UDP-glucose pyrophosphorylase (galU gene product) of K. pneumoniae DSM 30104; mutant of Strep-KpUGP; tag as in m1; no cleavage described) MAALNSKVRKAVIPVAGLGTRMLPATKAIPKEMLPLVDKPLIQYVVNECIAAGITEIVLVTHSSKNSIENHFDTSFQLEAMLEKRVKRQLLEEVQSICPPHVTIMQVRQGLAKGLGHAVLCAHPVVGDEPVAVILPDVILDEYESDLSRDNLAEMISRFDETGASQIMVEPVEDVTAYGVVDCKGESLKPGESVPMVGVVEKPKADVAPSNLAVVGRYVLSADIWPLLAKTPPGAGDEIQLTDAIDMLIEKETVEAYHMKGKSHDCGNKLGYMQAFVEYGIRHKTLGDDFKAWLETAVAK	4.6	4
KpUGP R108A (enzyme, UDP-glucose pyrophosphorylase (galU gene product) of K. pneumoniae DSM 30104; mutant of Strep-KpUGP; tag as in m1; no cleavage described) MAALNSKVRKAVIPVAGLGTRMLPATKAIPKEMLPLVDKPLIQYVVNECIAAGITEIVLVTHSSKNSIENHFDTSFELEAMLEKRVKRQLLEEVQSICPPHVTIMQVAQGLAKGLGHAVLCAHPVVGDEPVAVILPDVILDEYESDLSRDNLAEMISRFDETGASQIMVEPVEDVTAYGVVDCKGESLKPGESVPMVGVVEKPKADVAPSNLAVVGRYVLSADIWPLLAKTPPGAGDEIQLTDAIDMLIEKETVEAYHMKGKSHDCGNKLGYMQAFVEYGIRHKTLGDDFKAWLETAVAK	2.2	
KpUGP F276H (enzyme, UDP-glucose pyrophosphorylase (galU gene product) of K. pneumoniae DSM 30104; mutant of Strep-KpUGP; tag as in m1; no cleavage described) MAALNSKVRKAVIPVAGLGTRMLPATKAIPKEMLPLVDKPLIQYVVNECIAAGITEIVLVTHSSKNSIENHFDTSFELEAMLEKRVKRQLLEEVQSICPPHVTIMQVRQGLAKGLGHAVLCAHPVVGDEPVAVILPDVILDEYESDLSRDNLAEMISRFDETGASQIMVEPVEDVTAYGVVDCKGESLKPGESVPMVGVVEKPKADVAPSNLAVVGRYVLSADIWPLLAKTPPGAGDEIQLTDAIDMLIEKETVEAYHMKGKSHDCGNKLGYMQAHVEYGIRHKTLGDDFKAWLETAVAK	4.5	4
KpUGP E69D (enzyme, UDP-glucose pyrophosphorylase (galU gene product) of K. pneumoniae DSM 30104; mutant of Strep-KpUGP; tag as in m1; no cleavage described) MAALNSKVRKAVIPVAGLGTRMLPATKAIPKEMLPLVDKPLIQYVVNECIAAGITEIVLVTHSSKNSIDNHFDTSFELEAMLEKRVKRQLLEEVQSICPPHVTIMQVRQGLAKGLGHAVLCAHPVVGDEPVAVILPDVILDEYESDLSRDNLAEMISRFDETGASQIMVEPVEDVTAYGVVDCKGESLKPGESVPMVGVVEKPKADVAPSNLAVVGRYVLSADIWPLLAKTPPGAGDEIQLTDAIDMLIEKETVEAYHMKGKSHDCGNKLGYMQAFVEYGIRHKTLGDDFKAWLETAVAK	4.6	4
KpUGP D73A (enzyme, UDP-glucose pyrophosphorylase (galU gene product) of K. pneumoniae DSM 30104; mutant of Strep-KpUGP; tag as in m1; no cleavage described; dissociates progressively during storage on ice) MAALNSKVRKAVIPVAGLGTRMLPATKAIPKEMLPLVDKPLIQYVVNECIAAGITEIVLVTHSSKNSIENHFATSFELEAMLEKRVKRQLLEEVQSICPPHVTIMQVRQGLAKGLGHAVLCAHPVVGDEPVAVILPDVILDEYESDLSRDNLAEMISRFDETGASQIMVEPVEDVTAYGVVDCKGESLKPGESVPMVGVVEKPKADVAPSNLAVVGRYVLSADIWPLLAKTPPGAGDEIQLTDAIDMLIEKETVEAYHMKGKSHDCGNKLGYMQAFVEYGIRHKTLGDDFKAWLETAVAK	2.7	
KpUGP E77A (enzyme, UDP-glucose pyrophosphorylase (galU gene product) of K. pneumoniae DSM 30104; mutant of Strep-KpUGP; tag as in m1; no cleavage described) MAALNSKVRKAVIPVAGLGTRMLPATKAIPKEMLPLVDKPLIQYVVNECIAAGITEIVLVTHSSKNSIENHFDTSFALEAMLEKRVKRQLLEEVQSICPPHVTIMQVRQGLAKGLGHAVLCAHPVVGDEPVAVILPDVILDEYESDLSRDNLAEMISRFDETGASQIMVEPVEDVTAYGVVDCKGESLKPGESVPMVGVVEKPKADVAPSNLAVVGRYVLSADIWPLLAKTPPGAGDEIQLTDAIDMLIEKETVEAYHMKGKSHDCGNKLGYMQAFVEYGIRHKTLGDDFKAWLETAVAK	4.5	4
